The experiment deals with EGFR on A431 cells (human squamous cell carcinoma cells) (human) (UniProt P00533). Description: inhibition of the binding of Eu-EGF (10 nM) to A431 cells, time-resolved fluorescence; blocked ligand: Eu-EGF.

The substance “anti-EGFR monoclonal antibody Ab-3 (Oncogene)” displayed an IC50 (read off the curve) of 0.6 µg/mL.

These data come from US20070032637A1.
